Data from doi:10.1101/2020.09.10.292318 (bioRxiv, 2020).

Tests used:
[1] = biological target: SARS-CoV-2 nucleocapsid (N) protein, N-FL (SARS-CoV-2 (reference sequence; isolate …, UniProt P0DTC9); test: SPR
SARS-CoV N protein = SARS-CoV N protein (SARS-CoV (strain ; reference …, UniProt P59595); test: SPR

B1: mAb nCoV396 (antibody, V domains shown)
VH: QVQLVESGGGVVQPGRSLRLSCAASGFTFSSYIMHWVRQAPGKGLEWVAVISYDGSNEAYADSVKGRFTISRDNSKNTLYLQMSSLRAEDTGVYYCARETGDYSSSWYDSWGRGTLVTVSS
VL: QLVLTQSPSASASLGASVKLTCTLSSGHSNYAIAWHQQQPEKGPRYLMKVNSDGSHTKGDGIPDRFSGSSSGAERYLTISSLQSEDEADYYCQTWGTGIQVFGGGTKLTVL
Kd [1]: 1.02 nM
Kd (SARS-CoV N protein): 7.4 nM
